Test results as given in patent publication US20250122303A1, “TREATMENT AND PREVENTION OF CANCER USING HER3 ANTIGEN-BINDING MOLECULES” (Hummingbird Bioscience Pte. Ltd., priority 2021, published 2025).

What was measured:
cynomolgus macaque HER3 = assay: ELISA cross-reactivity, cynomolgus macaque HER3; type: binding
Procedure: (§1) ELISAs were used to determine the binding specificity of the antibodies. The antibodies were analysed for binding to human HER3 polypeptide, as well as respective mouse, rat and monkey homologues of HER3 (Sino Biological Inc., China). The antibodies were also analysed for their ability to bind to human EGFR and human HER2 (Sino Biological Inc., China).
ELISAs were carried out according to standard protocols. Briefly, 96-well plates (Nunc, Denmark) were coated with 0.1 μg/ml of target polypeptide in phosphate-buffered saline (PBS) for 16 h at 4° C. After blocking for 1 h with 1% BSA in Tris buffer saline (TBS) at room temperature, the anti-HER3 antibody was serially diluted with the highest concentration being 10 μg/ml, and added to the plate. Post 1 h incubation at room temperature, plates were washed three times with TBS containing 0.05% Tween 20 (TBS-T) and were then incubated with a HRP-conjugated anti-His antibody (Life Technologies, Inc., USA) for 1 h at room temperature. After washing, plates were developed with colorimetric detection substrate 3,3′,5,5′-tetramethylbenzidine (Turbo-TMB; Pierce, USA) for 10 min. The reaction was stopped with 2M H2SO4, and OD was measured at 450 nm. […]

[1] = target: T1, human HER3 (HEK293 HER3 O/E cells) (Homo sapiens, UniProt P21860); assay: Cell surface antigen-binding by flow cytometry
T1 construct: expressed in transfected cells; host or cells: HEK293
Procedure: The cells were washed thrice with FACS buffer (PBS with 5 mM EDTA and 0.5% BSA) and resuspended in FITC-conjugated anti-FC antibody (Invitrogen, USA) for 40 min at 2-8° C. Cells were washed again and resuspended in 200 μL of FACS flow buffer (PBS with 5 mM EDTA) for flow cytometric analysis using MACSQuant 10 (Miltenyi Biotec, Germany). After acquisition, all raw data were analyzed using Flowlogic software. Cells were gated using forward and side scatter profile percentage of positive cells was determined for native and overexpressing cell populations.
The cells were washed with buffer (PBS with 2 mM EDTA and 0.5% BSA) and resuspended in FITC-conjugated anti-FC antibody (Invitrogen, USA) at 10 μg/ml for 20 min at 4° C. Cells were washed again and resuspended in 200 μL of FACS flow buffer (PBS with 5 mM EDTA) for flow cytometric analysis using MACSQuant 10 (Miltenyi Biotec, Germany). Unstained WT and transfected HEK293 cells were included in the analysis as negative controls. After acquisition, all raw data were analyzed using Flowlogic software. Cells were gated using forward and side scatter profile percentage of positive cells was determined for native and overexpressing cell populations.

human EGFR = target: T2, human EGFR (Homo sapiens, UniProt P00533); assay: ELISA specificity, human EGFR; type: binding; details: antibody up to 10 μg/ml
T2 construct: purchased Sino Biological Inc., China
Procedure: as §1
ELISAs were carried out according to standard protocols. Briefly, 96-well plates (Nunc, Denmark) were coated with 0.1 μg/ml of target polypeptide in phosphate-buffered saline (PBS) for 16 h at 4° C. After blocking for 1 h with 1% BSA in Tris buffer saline (TBS) at room temperature, the anti-HER3 antibody was serially diluted with the highest concentration being 10 μg/ml, and added to the plate. Post 1 h incubation at room temperature, plates were washed three times with TBS containing 0.05% Tween 20 (TBS-T) and were then incubated with a HRP-conjugated anti-His antibody (Life Technologies, Inc., USA) for 1 h at room temperature. […] The reaction was stopped with 2M H2SO4, and OD was measured at 450 nm.
The antibodies were analysed for their ability to bind to human HER3 polypeptide as well as human HER1 (EGFR) and human HER2 (Sino Biological Inc., China). […]
ELISAs were carried out according to standard protocols. […] The reaction was stopped with 2M H2SO4, and OD was measured at 450 nm.

[2] = system: FaDu cell-line derived mouse model of head and neck squamous cell carcinoma; assay: FaDu cell-line derived xenograft model; type: in vivo
Procedure: Tumor volumes were measured 3 times a week using a digital caliper and calculated using the formula [L ×W2/2]. Study End point was considered to have been reaches once the tumors of the control arm measured >1.5 cm in length.
The model was established by subcutaneous injection of 1×10^6 FaDu cells into the right flanks of female NPG mice (NOD scid gamma phenotype; n=6 mice per treatment group).
10D1 was administered IP, weekly at 500 μg per dose (for a total of 4 doses). Control treatment groups received an equal volume of PBS, or the same dose of an isotype control antibody.
The model was established by subcutaneous injection of 1×10^6 FaDu cells into the right flanks of female NCr nude mice (n=6 mice per treatment group).
10D1 was administered IP, biweekly at 500 μg per dose (for a total of 8 doses); a control treatment group received an equal volume of PBS.
Tumour cells were inserted with matrigel subcutaneously into the right flanks of female NCr nude mice.
Murine tumour efficacy studies were performed using cell-line derived xenograft (CDX) models in mice. Female NCr nude mice (5-8 weeks old, 21-29 g) were subcutaneously implanted with N87, A549, FaDu, OvCAR8 cells. Treatment was initiated when tumours reached approximately 100 to 200 mm^3. […] Tumours were measured twice per week using a calliper and tumour volume (mm^3) was calculated. […]

[3] = system: A549 cell-line derived mouse model of lung adenocarcinoma; assay: A549 cell-line derived xenograft model; type: in vivo; details: A549, NCr nude mice, IP biweekly 500 μg, 10 doses
FaDu cells = assay: CCK-8 proliferation assay, FaDu; type: cell-based, human; details: 5 days
Procedure: Briefly, N87 and FaDu cells were treated with serially diluted concentrations of anti-HER3 antibody 10D1, starting from 100 μg/ml with a 9-point half log dilution. Cell proliferation was measuring using the CCK-8 proliferation assay (Dojindo, Japan) after a period of 5 days, in accordance with the manufacturer's instructions. Briefly 1× CCK-8 solution was added to each well followed by incubation for 2 h at 37° C. The OD was then measured at 450 nm.

binding / cross-reactivity with cynomolgus macaque HER3 (cynomolgus macaque HER3): substantial cross-reactivity
binding to human EGFR (HER1) (human EGFR): not to bind
B1: 10D1: anti-HER3 antibody clone, VH SEQ ID NO:24, VL SEQ ID NO:74; [1] of Example 2.2 (antibody, V domains shown)
VH: DVQLQESGPDLVKPSQSLSLTCTVTGYSITSGYSWHWIRQFPGNKLEWMGSIHYSGGTNYNPSLKSRISITRDTSKNQFFLQLNSVTTEDTATYFCARMTTAPRYPFDYWGQGTTLTVSS
VL: DIVMTQSQKFMSTSVGDRVSVTCKASQIVGSNVAWYQQKPGQSPKPLIYSASYRYSGVPDRFTASGSGTDFTLTITNVQSEDLAEYFCQQYSSHPLTFGAGTKLELK
extent of binding to human HER3-expressing cells ([1]; 10 μg/ml antibody): bind to human HER3-expressing cells to a similar extent
extent of binding to human HER3-expressing cells ([1]; 20 μg/ml antibody): bind to human HER3-expressing cells to a similar extent
inhibition of tumor growth ([2]; NCr nude mice, IP biweekly 500 μg, 8 doses): ~86%
inhibition of tumor growth ([2]; NPG mice, IP weekly 500 μg, 4 doses): ~85%
inhibition of tumor growth [3]: ~91%
cell proliferation (FaDu cells): dose-dependent inhibition of cell proliferation
